Test system: HBV (rAAV8-1.3HBV strain ayw, D type)
Assay: Combination therapy study in AAV-HBV mice (Example 1): serum HBsAg and HBV DNA
Type: in vivo, C57BL/6 mice
Experimental: The mice (C57BL/6 strain) were inoculated with the following amount of rAAV8-1.3HBV strain ayw, D type: 1.0×10^11 viral genomes per mouse in 200 μl volume via tail veins injection. Four weeks after viral inoculation, treatment with test compounds was initiated.
Entecavir was administered orally once per day.

With `C=C1[C@H](CO)[C@@H](O)C[C@@H]1n1cnc2c(=O)[nH]c(N)nc21` [ETV, entecavir, reference compound] the “HBsAg levels from mouse serum (average log HBsAg content)” value (Treatment 13: ETV 0.001 mg/kg, day 0 post-dose) was 4.54 log IU/ml, the “HBsAg levels from mouse serum (average log HBsAg content)” value (Treatment 13: ETV 0.001 mg/kg, day 3 post-dose) was 4.54 log IU/ml and the “HBsAg levels from mouse serum (average log HBsAg content)” value (Treatment 13: ETV 0.001 mg/kg, day 7 post-dose) was 4.39 log IU/ml. The “HBsAg levels from mouse serum (average log HBsAg content)” value (Treatment 13: ETV 0.001 mg/kg, day 10 post-dose) was 4.29 log IU/ml, the “HBsAg levels from mouse serum (average log HBsAg content)” value (Treatment 13: ETV 0.001 mg/kg, day 14 post-dose) was 4.28 log IU/ml and the “HBsAg levels from mouse serum (average log HBsAg content)” value (Treatment 13: ETV 0.001 mg/kg, day 17 post-dose) was 4.24 log IU/ml. For the same molecule, the “HBsAg levels from mouse serum (average log HBsAg content)” value (Treatment 13: ETV 0.001 mg/kg, day 21 post-dose) was 4.13 log IU/ml, the “HBsAg levels from mouse serum (average log HBsAg content)” value (Treatment 13: ETV 0.001 mg/kg, day 24 post-dose) was 4.21 log IU/ml and the “HBsAg levels from mouse serum (average log HBsAg content)” value (Treatment 13: ETV 0.001 mg/kg, day 28 post-dose) was 3.98 log IU/ml. The “HBsAg levels from mouse serum (average log HBsAg content)” value (Treatment 13: ETV 0.001 mg/kg, day 31 post-dose) was 4.02 log IU/ml, the “HBsAg levels from mouse serum (average log HBsAg content)” value (Treatment 13: ETV 0.001 mg/kg, day 35 post-dose) was 3.88 log IU/ml and the “HBsAg levels from mouse serum (average log HBsAg content)” value (Treatment 13: ETV 0.001 mg/kg, day 38 post-dose) was 3.92 log IU/ml. The “HBsAg levels from mouse serum (average log HBsAg content)” value (Treatment 13: ETV 0.001 mg/kg, day 42 post-dose) was 3.84 log IU/ml.

“HBV02: chemically synthesized double-stranded oligonucleotide (siRNA) linked to a ligand with three GalNAc residues; sense SEQ ID NO:7, antisense SEQ ID NO:8 (sense GUGUGCACUUCGCUUCACA; antisense UGUGAAGCGAAGUGCACACUU; triantennary GalNAc ligand attached, chemically modified, pattern not given here)” was tested, and the “Reduction of serum HBV DNA (viral load) relative to the saline control” value (AAV/HBV-infected C57BL/6 mice, HBV02 3 mg/kg, HBC34 antibody (HBC34-v7-mu-IgG2a) 15 mg/kg, alone or combined, FIGS. 2A, 2B) was ~0.5 log10, the “Reduction of serum HBsAg relative to the saline control” value (AAV/HBV-infected C57BL/6 mice, HBV02 3 mg/kg, HBC34 antibody (HBC34-v7-mu-IgG2a) 15 mg/kg, alone or combined, FIGS. 3A, 3B) was 1 log10 and the “HBsAg levels from mouse serum (average log HBsAg content)” value (Treatment 1: HBV02 3 mg/kg, day 0 post-dose) was 4.55 log IU/ml. For the same molecule, the “HBsAg levels from mouse serum (average log HBsAg content)” value (Treatment 1: HBV02 3 mg/kg, day 3 post-dose) was 3.99 log IU/ml, the “HBsAg levels from mouse serum (average log HBsAg content)” value (Treatment 1: HBV02 3 mg/kg, day 7 post-dose) was 3.67 log IU/ml and the “HBsAg levels from mouse serum (average log HBsAg content)” value (Treatment 1: HBV02 3 mg/kg, day 10 post-dose) was 3.59 log IU/ml. For the same molecule, the “HBsAg levels from mouse serum (average log HBsAg content)” value (Treatment 1: HBV02 3 mg/kg, day 14 post-dose) was 3.71 log IU/ml, the “HBsAg levels from mouse serum (average log HBsAg content)” value (Treatment 1: HBV02 3 mg/kg, day 17 post-dose) was 3.69 log IU/ml and the “HBsAg levels from mouse serum (average log HBsAg content)” value (Treatment 1: HBV02 3 mg/kg, day 21 post-dose) was 3.60 log IU/ml. The “HBsAg levels from mouse serum (average log HBsAg content)” value (Treatment 1: HBV02 3 mg/kg, day 24 post-dose) was 3.57 log IU/ml, the “HBsAg levels from mouse serum (average log HBsAg content)” value (Treatment 1: HBV02 3 mg/kg, day 28 post-dose) was 3.57 log IU/ml and the “HBsAg levels from mouse serum (average log HBsAg content)” value (Treatment 1: HBV02 3 mg/kg, day 31 post-dose) was 3.81 log IU/ml. For the same molecule, the “HBsAg levels from mouse serum (average log HBsAg content)” value (Treatment 1: HBV02 3 mg/kg, day 35 post-dose) was 3.72 log IU/ml, the “HBsAg levels from mouse serum (average log HBsAg content)” value (Treatment 1: HBV02 3 mg/kg, day 38 post-dose) was 3.72 log IU/ml and the “HBsAg levels from mouse serum (average log HBsAg content)” value (Treatment 1: HBV02 3 mg/kg, day 42 post-dose) was 3.55 log IU/ml.

B1: HBC34v7 (antibody, V domains shown)
VH: ELQLVESGGGWVQPGGSQRLSCAASGRIFRSFYMSWVRQAPGKGLEWVATINQDGSEKLYVDSVKGRFTISRDNAKNSLFLQMNNLRVEDTAVYYCAAWSGNSGGMDVWGQGTTVSVSS
VL: SYELTQPPSVSVSPGQTVSIPCSGDKLGNKNVCWFQHKPGQSPVLVIYEVKYRPSGIPERFSGSNSGNTATLTISGTQAMDEAAYFCQTFDSTTVVFGGGTRLTVL
modifications: Synthetic sequence HBC34 VH; Synthetic sequence HBC34v7 VL
With B1 the “HBsAg levels from mouse serum (average log HBsAg content)” value (Treatment 2: HBC34v7 15 mg/kg, day 0 post-dose) was 4.64 log IU/ml, the “HBsAg levels from mouse serum (average log HBsAg content)” value (Treatment 2: HBC34v7 15 mg/kg, day 3 post-dose) was 4.58 log IU/ml and the “HBsAg levels from mouse serum (average log HBsAg content)” value (Treatment 2: HBC34v7 15 mg/kg, day 7 post-dose) was 4.46 log IU/ml. For the same molecule, the “HBsAg levels from mouse serum (average log HBsAg content)” value (Treatment 2: HBC34v7 15 mg/kg, day 10 post-dose) was 4.42 log IU/ml, the “HBsAg levels from mouse serum (average log HBsAg content)” value (Treatment 2: HBC34v7 15 mg/kg, day 14 post-dose) was 4.34 log IU/ml and the “HBsAg levels from mouse serum (average log HBsAg content)” value (Treatment 2: HBC34v7 15 mg/kg, day 17 post-dose) was 3.87 log IU/ml. The “HBsAg levels from mouse serum (average log HBsAg content)” value (Treatment 2: HBC34v7 15 mg/kg, day 21 post-dose) was 4.09 log IU/ml, the “HBsAg levels from mouse serum (average log HBsAg content)” value (Treatment 2: HBC34v7 15 mg/kg, day 24 post-dose) was 3.65 log IU/ml and the “HBsAg levels from mouse serum (average log HBsAg content)” value (Treatment 2: HBC34v7 15 mg/kg, day 28 post-dose) was 4.15 log IU/ml. The “HBsAg levels from mouse serum (average log HBsAg content)” value (Treatment 2: HBC34v7 15 mg/kg, day 31 post-dose) was 4.29 log IU/ml, the “HBsAg levels from mouse serum (average log HBsAg content)” value (Treatment 2: HBC34v7 15 mg/kg, day 35 post-dose) was 4.25 log IU/ml and the “HBsAg levels from mouse serum (average log HBsAg content)” value (Treatment 2: HBC34v7 15 mg/kg, day 38 post-dose) was 4.26 log IU/ml. The “HBsAg levels from mouse serum (average log HBsAg content)” value (Treatment 2: HBC34v7 15 mg/kg, day 42 post-dose) was 4.28 log IU/ml, the “HBsAg levels from mouse serum (average log HBsAg content)” value (Treatment 3: HBC34v7 5 mg/kg, day 0 post-dose) was 4.49 log IU/ml and the “HBsAg levels from mouse serum (average log HBsAg content)” value (Treatment 3: HBC34v7 5 mg/kg, day 3 post-dose) was 4.37 log IU/ml. The “HBsAg levels from mouse serum (average log HBsAg content)” value (Treatment 3: HBC34v7 5 mg/kg, day 7 post-dose) was 4.44 log IU/ml, the “HBsAg levels from mouse serum (average log HBsAg content)” value (Treatment 3: HBC34v7 5 mg/kg, day 10 post-dose) was 4.35 log IU/ml and the “HBsAg levels from mouse serum (average log HBsAg content)” value (Treatment 3: HBC34v7 5 mg/kg, day 14 post-dose) was 4.30 log IU/ml. For the same molecule, the “HBsAg levels from mouse serum (average log HBsAg content)” value (Treatment 3: HBC34v7 5 mg/kg, day 17 post-dose) was 4.28 log IU/ml, the “HBsAg levels from mouse serum (average log HBsAg content)” value (Treatment 3: HBC34v7 5 mg/kg, day 21 post-dose) was 4.32 log IU/ml and the “HBsAg levels from mouse serum (average log HBsAg content)” value (Treatment 3: HBC34v7 5 mg/kg, day 24 post-dose) was 4.26 log IU/ml. For the same molecule, the “HBsAg levels from mouse serum (average log HBsAg content)” value (Treatment 3: HBC34v7 5 mg/kg, day 28 post-dose) was 4.23 log IU/ml, the “HBsAg levels from mouse serum (average log HBsAg content)” value (Treatment 3: HBC34v7 5 mg/kg, day 31 post-dose) was 3.99 log IU/ml and the “HBsAg levels from mouse serum (average log HBsAg content)” value (Treatment 3: HBC34v7 5 mg/kg, day 35 post-dose) was 3.99 log IU/ml. For the same molecule, the “HBsAg levels from mouse serum (average log HBsAg content)” value (Treatment 3: HBC34v7 5 mg/kg, day 38 post-dose) was 4.08 log IU/ml, the “HBsAg levels from mouse serum (average log HBsAg content)” value (Treatment 3: HBC34v7 5 mg/kg, day 42 post-dose) was 4.05 log IU/ml and the “HBsAg levels from mouse serum (average log HBsAg content)” value (Treatment 4: HBC34v7 1 mg/kg, day 0 post-dose) was 4.50 log IU/ml. The “HBsAg levels from mouse serum (average log HBsAg content)” value (Treatment 4: HBC34v7 1 mg/kg, day 3 post-dose) was 4.46 log IU/ml, the “HBsAg levels from mouse serum (average log HBsAg content)” value (Treatment 4: HBC34v7 1 mg/kg, day 7 post-dose) was 4.42 log IU/ml and the “HBsAg levels from mouse serum (average log HBsAg content)” value (Treatment 4: HBC34v7 1 mg/kg, day 10 post-dose) was 4.37 log IU/ml. The “HBsAg levels from mouse serum (average log HBsAg content)” value (Treatment 4: HBC34v7 1 mg/kg, day 14 post-dose) was 4.40 log IU/ml, the “HBsAg levels from mouse serum (average log HBsAg content)” value (Treatment 4: HBC34v7 1 mg/kg, day 17 post-dose) was 4.31 log IU/ml and the “HBsAg levels from mouse serum (average log HBsAg content)” value (Treatment 4: HBC34v7 1 mg/kg, day 21 post-dose) was 4.31 log IU/ml. The “HBsAg levels from mouse serum (average log HBsAg content)” value (Treatment 4: HBC34v7 1 mg/kg, day 24 post-dose) was 4.38 log IU/ml, the “HBsAg levels from mouse serum (average log HBsAg content)” value (Treatment 4: HBC34v7 1 mg/kg, day 28 post-dose) was 4.29 log IU/ml and the “HBsAg levels from mouse serum (average log HBsAg content)” value (Treatment 4: HBC34v7 1 mg/kg, day 31 post-dose) was 4.15 log IU/ml. The “HBsAg levels from mouse serum (average log HBsAg content)” value (Treatment 4: HBC34v7 1 mg/kg, day 35 post-dose) was 4.16 log IU/ml, the “HBsAg levels from mouse serum (average log HBsAg content)” value (Treatment 4: HBC34v7 1 mg/kg, day 38 post-dose) was 4.09 log IU/ml and the “HBsAg levels from mouse serum (average log HBsAg content)” value (Treatment 4: HBC34v7 1 mg/kg, day 42 post-dose) was 4.08 log IU/ml. The “HBsAg levels from mouse serum (average log HBsAg content)” value (Treatment 5: HBC34v7 0.1 mg/kg, day 0 post-dose) was 4.51 log IU/ml, the “HBsAg levels from mouse serum (average log HBsAg content)” value (Treatment 5: HBC34v7 0.1 mg/kg, day 3 post-dose) was 4.36 log IU/ml and the “HBsAg levels from mouse serum (average log HBsAg content)” value (Treatment 5: HBC34v7 0.1 mg/kg, day 7 post-dose) was 4.31 log IU/ml. The “HBsAg levels from mouse serum (average log HBsAg content)” value (Treatment 5: HBC34v7 0.1 mg/kg, day 10 post-dose) was 4.17 log IU/ml, the “HBsAg levels from mouse serum (average log HBsAg content)” value (Treatment 5: HBC34v7 0.1 mg/kg, day 14 post-dose) was 4.26 log IU/ml and the “HBsAg levels from mouse serum (average log HBsAg content)” value (Treatment 5: HBC34v7 0.1 mg/kg, day 17 post-dose) was 4.17 log IU/ml. For the same molecule, the “HBsAg levels from mouse serum (average log HBsAg content)” value (Treatment 5: HBC34v7 0.1 mg/kg, day 21 post-dose) was 4.23 log IU/ml, the “HBsAg levels from mouse serum (average log HBsAg content)” value (Treatment 5: HBC34v7 0.1 mg/kg, day 24 post-dose) was 4.25 log IU/ml and the “HBsAg levels from mouse serum (average log HBsAg content)” value (Treatment 5: HBC34v7 0.1 mg/kg, day 28 post-dose) was 4.20 log IU/ml. For the same molecule, the “HBsAg levels from mouse serum (average log HBsAg content)” value (Treatment 5: HBC34v7 0.1 mg/kg, day 31 post-dose) was 4.26 log IU/ml, the “HBsAg levels from mouse serum (average log HBsAg content)” value (Treatment 5: HBC34v7 0.1 mg/kg, day 35 post-dose) was 4.38 log IU/ml and the “HBsAg levels from mouse serum (average log HBsAg content)” value (Treatment 5: HBC34v7 0.1 mg/kg, day 38 post-dose) was 4.38 log IU/ml. The “HBsAg levels from mouse serum (average log HBsAg content)” value (Treatment 5: HBC34v7 0.1 mg/kg, day 42 post-dose) was 4.30 log IU/ml.

Source: patent US12404318B2, “Combination HBV therapy” (priority 2018, dated 2025)
